In patent publication US20140161821A1, “TREATMENT WITH ANTI-PCSK9 ANTIBODIES” (PFIZER INC., priority 2011, published 2014):
Like-named read-outs stand apart in the source and are kept apart here.

Legend:
[1] = Description: Subjects were seen periodically in the clinic for safety assessments and collection of blood for safety labs, lipid profiles, PK, PD, and immunogenicity samples. Telephone contacts were made prior to each visit to remind them of the 10-hour fasting requirements, during screening and on Day 3 to assess adverse events and document the contact in the subject's source document. […] Infusions were administered as a single infusion over approximately 60 minutes.
[2] = Example 2 clinical study: safety and adverse events; type: in vivo; details: single IV 0.3-18 mg/kg
Description: The study entailed a randomized, placebo-controlled, ascending, single dose study of L1L3. The subjects, investigator, and site personnel (except site personnel responsible for drug preparation) were blinded to treatment assignments, as was the CRO designee; while the Sponsor clinical research team was unblinded. The study was conducted in 6 planned cohorts of 8 subjects per cohort in an effort to seek a maximum tolerated dose or MTD (total of approximately 48 subjects). […] Doses were administered following an overnight fast as an intravenous infusion over 60 minutes. […] Infusions will be administered as a single infusion over 60 minutes.
The dosing schedule was adjusted to allow administration of lower, intermediate, or higher doses to obtain a maximum tolerated dose and no effect dose. Each subject enrolled into the study, regardless of cohort assignment, received only one dose of study drug during their study participation.

PCSK9 [3] = molecular target: T1, PCSK9 (Homo sapiens, UniProt Q8NBP7); assay: Example 5 clinical study, four weekly IV doses: fasting LDL-C; type: in vivo, human Japanese subjects; details: weekly IV 0.25, 0.5, 1.0, 1.5 mg/kg on Days 1, 8, 15, 22; baseline about 155 mg/dL
T1 construct: PCSK9 antagonist antibody that antagonizes circulating PCSK9; endogenous in cells; host or cells: human subjects in clinical trials (in vivo, circulating PCSK9)
Text: This study was a randomized, multi-center, double-blind, placebo control, parallel designed trial with a 28 day screening period, 4 week treatment period and 8 week follow-up period (FIG. 11). […] For each subject, the study consisted of 3 periods: screening, treatment, and follow-up. […] The follow-up period will lasted approximately 8 weeks, from approximately Day 29 to the last visit (Day 78).

PCSK9 [4] = molecular target: T2, PCSK9 (Mus musculus, UniProt Q80W65); assay: Serum cholesterol in C57BL/6 mice after single IP dose; type: in vivo; details: 10 mg/kg single IP
T2 construct: endogenous in cells; host or cells: live C57BL/6 mice (in vivo, serum PCSK9)
Description: Serum cholesterol levels recovered to 69 mg/dL by day 7 post-treatment.

[5] = Example 6 clinical study: safety and immunogenicity; type: in vivo, human; details: IV every 4 weeks, stable daily statin
Description: Subjects were seen periodically in the clinic for safety assessments and collection of blood for safety labs, lipid profiles, PK, PD, and immunogenicity samples. Telephone contacts were made prior to each visit to remind them of the 10-hour fasting requirements, during screening and on Day 3 to assess adverse events and document the contact in the subject's source document. […] Infusion rates were carefully controlled by an infusion device per protocol. Infusions were administered as a single infusion over approximately 60 minutes.

T2 sequence (Q80W65 156-694): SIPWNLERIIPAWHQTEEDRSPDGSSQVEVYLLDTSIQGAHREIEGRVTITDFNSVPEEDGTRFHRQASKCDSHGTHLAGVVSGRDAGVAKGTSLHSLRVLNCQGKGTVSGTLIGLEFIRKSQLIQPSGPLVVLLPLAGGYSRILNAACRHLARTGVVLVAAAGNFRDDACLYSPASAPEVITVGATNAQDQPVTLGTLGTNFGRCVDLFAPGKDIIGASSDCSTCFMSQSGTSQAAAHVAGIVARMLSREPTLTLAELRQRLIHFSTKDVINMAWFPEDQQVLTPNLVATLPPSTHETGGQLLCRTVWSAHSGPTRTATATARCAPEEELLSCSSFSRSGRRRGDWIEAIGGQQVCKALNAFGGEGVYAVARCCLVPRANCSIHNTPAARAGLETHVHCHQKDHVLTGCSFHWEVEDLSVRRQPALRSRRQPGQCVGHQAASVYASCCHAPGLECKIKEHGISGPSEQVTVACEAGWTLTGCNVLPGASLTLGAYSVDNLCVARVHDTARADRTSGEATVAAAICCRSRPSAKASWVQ
T2 sequence (Q80W65 35-155 partner limits assumed): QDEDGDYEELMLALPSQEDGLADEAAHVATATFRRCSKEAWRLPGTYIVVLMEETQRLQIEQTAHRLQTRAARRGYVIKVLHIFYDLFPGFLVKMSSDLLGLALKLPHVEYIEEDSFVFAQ
T1 sequence (Q8NBP7 153-692): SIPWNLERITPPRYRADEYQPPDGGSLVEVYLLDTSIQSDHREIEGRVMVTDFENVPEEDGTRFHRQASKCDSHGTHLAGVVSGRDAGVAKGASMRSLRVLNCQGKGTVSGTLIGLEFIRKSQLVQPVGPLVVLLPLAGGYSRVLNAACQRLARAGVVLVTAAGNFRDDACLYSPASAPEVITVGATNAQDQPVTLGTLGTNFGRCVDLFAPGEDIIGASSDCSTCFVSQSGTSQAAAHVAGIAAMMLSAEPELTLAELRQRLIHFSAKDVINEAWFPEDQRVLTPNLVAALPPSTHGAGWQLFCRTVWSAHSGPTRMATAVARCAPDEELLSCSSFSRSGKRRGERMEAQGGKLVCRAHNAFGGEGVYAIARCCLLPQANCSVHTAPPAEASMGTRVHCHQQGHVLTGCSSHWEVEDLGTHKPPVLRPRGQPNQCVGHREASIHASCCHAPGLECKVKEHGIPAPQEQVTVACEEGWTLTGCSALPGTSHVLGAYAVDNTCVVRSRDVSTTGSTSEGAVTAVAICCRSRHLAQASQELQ
T1 sequence (Q8NBP7 31-152 partner limits assumed): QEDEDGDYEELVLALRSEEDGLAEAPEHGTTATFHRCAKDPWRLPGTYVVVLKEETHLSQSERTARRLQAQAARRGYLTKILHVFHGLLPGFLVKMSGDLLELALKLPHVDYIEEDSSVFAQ

B1: L1L3: humanized (<5% murine residues) monoclonal PCSK9 antagonist antibody that binds to secreted PCSK9; VH SEQ ID NO: 11, VL SEQ ID NO: 12 (antibody, V domains shown)
VH: QVQLVQSGAEVKKPGASVKVSCKASGYTFTSYYMHWVRQAPGQGLEWMGEISPFGGRTNYNEKFKSRVTMTRDTSTSTVYMELSSLRSEDTAVYYCARERPLYASDLWGQGTTVTVSS
VL: DIQMTQSPSSLSASVGDRVTITCRASQGISSALAWYQQKPGKAPKLLIYSASYRYTGVPSRFSGSGSGTDFTFTISSLQPEDIATYYCQQRYSLWRTFGQGTKLEIK
modifications: heavy chain variable region; light chain variable region
Cmax ([1]; 0.25 mg/kg, after 1st dose): 10900 ± 13000 ng/mL
Ctrough ([1]; 0.25 mg/kg, after 1st dose): 109 ± 406 ng/mL
Ctrough ([1]; 3 mg/kg, after 3rd dose): 3040 ± 4420 ng/mL
Ctrough ([1]; 6 mg/kg, after 3rd dose): 15600 ± 15300 ng/mL
Discontinuation due to treatment emergent adverse events (TEAEs) [2]: no subjects discontinued
Intensity of TEAEs [2]: majority of TEAEs were mild in intensity; none were severe
Serious adverse events [2]: no serious adverse events occurred
Fasting LDL-C (PCSK9 [3]): sustained, substantial and durable dose-dependent fasting LDL-C lowering
Serum cholesterol reduction vs saline treated controls (PCSK9 [4]; 48 hours post treatment): 37%
Serum cholesterol levels (PCSK9 [4]; 4 days post-treatment): 44 mg/dL
Serum cholesterol reduction vs control animals (PCSK9 [4]; 4 days post-treatment): 47%
Serum cholesterol levels (recovered) (PCSK9 [4]; day 7 post-treatment): 69 mg/dL
Serum cholesterol levels (PCSK9 [4]; normal diet, 48 hours post treatment): 47 mg/dL
Anti-drug antibodies (ADA) [5]: No subject had positive ADA
Safety and tolerability [5]: generally safe and well-tolerated
Changes in LFTs, CK, ECGs, and BP ([5]; in most cases considered not related to treatment): transient, mild in nature
